The results in this text go back to US6512097.

Read-outs that look alike come from different tables or passages of the source.

Broadly, the Kd is the free concentration of one partner at which half of the binding sites on the other are occupied at equilibrium, for simple one-to-one binding. Low readings indicate higher affinity, high ones lower affinity. In general, koff refers to a measure of how fast the partners let go of each other. The low end stands for slow dissociation, the high end for fast dissociation. One may read the kon as the rate constant with which the complex forms. Higher therefore signals faster complex formation. The IC50 is the point on the concentration scale where inhibition reaches its midpoint.

Experiment [1] deals with T1, c-erbB-2 ECD with a Ser-Gly-His6 C-terminal fusion (UniProt P04626 23-652).
T1 construct: extracellular domain; Expressed from CHO cells, IMAC purified; coupled to a CM5 chip, coated on plates, or biotinylated with NHS-LC-biotin; also called c-erbB-2 extracellular domain; biotinylated c-erbB-2 ECD
Nature of the experiment: SPR BIAcore. (In general: In SPR one partner is held on a chip, and binding of the other changes the refractive index at the surface.)

For experiment [2], the target named is T1, c-erbB-2 ECD with a Ser-Gly-His6 …. Nature of the experiment: SPR BIAcore. As for the experimental part: (§1) All assays were performed in triplicate. Briefly, […] of radioiodinated sFv was added to 5×10^6 SK-OV cells in the presence of increasing concentrations of unlabeled sFv from the same preparation. After a 30 minute incubation at 20° C., the samples were washed with PBS at 4° C. and centrifuged at 500 g. The amount of labeled sFv bound to the cells was determined by counting the pellets in a gamma counter and the K_a, and K_d were calculated using the EBDA program (V 2.0, G. A. McPherson, 1983). The K_d of all the other isolated sFv were determined using surface plasmon resonance in a BIAcore (Pharmacia). In a BIAcore flow cell, approximately 1400 resonance units (RU) of c-erbB-2 ECD (25 μg/ml in 10 mM sodium acetate, pH 4.5) was coupled to a CM5 sensor chip (Johnsson et al. (1991), supra). Association and dissociation-rates were measured under continuous flow of […] using a concentration range from 50 to 800 nM. Rate constant $kon$ was determined from a plot of (1(dR/dt))/t vs concentration (Karlsson et al. (1991), supra). Rate constant $Hoff$ was determined from the dissociation part of the sensorgram at the highest concentration of sFv analyzed.
This is another data set of the same source.

The target is the same in experiment [3]. Nature of the experiment: SPR BIAcore. Here is the method: as §1
The source holds these as a separate data set.

The target is the same in experiment [4]. Nature of the experiment: SPR BIAcore (Kd ND, expression too low).
For experiment [5] the target is unchanged. Put plainly: SPR BIAcore, unpurified sFv.
The target is the same in experiment [6]. Put plainly: SPR BIAcore. The source holds these as a separate data set.
Experiment [7] deals with T2, c-erbB-2 expressed on cells (SK-OV-3, SK-BR-3) (UniProt P04626 23-1255, limits assumed).
T2 construct: whole, on cells; also called native c-erbB-2 expressed on cells; c-erbB-2 on SK-OV-3 cells
Nature of the experiment: Scatchard on SK-OV-3 cells. As for the experimental part: (§2) All assays were performed in triplicate. […] The amount of labeled sFv bound to the cells was determined by counting the pellets in a gamma counter and the K_a, and K_d were calculated using the EBDA program (V 2.0, G. A. McPherson, 1983).

The target of experiment [8] is T2, c-erbB-2 expressed on cells (SK-OV-3, …). Put plainly: Scatchard on SK-OV-3 cells. As for the experimental part:
as §2
This is another data set of the same source.

For experiment [9], the target named is T1, c-erbB-2 ECD with a Ser-Gly-His6 …. Put plainly: SPR BIAcore. The source holds these as a separate data set.
The target is the same in experiment [10]. Nature of the experiment: competition ELISA, sFv preincubated with soluble c-erbB-2 (0 to 100 nM). As for the experimental part:
Meth. 77: 305–319). Immunolon 4 ELISA plates (Dynatech) were coated with avidin in PBS (10 μg/ml) at 4° C. overnight. Biotinylated c-erbB-2 ECD (5 μg/ml) was added to the wells and incubated for 30 min at room temperature. Bacterial supernatant containing sFv was incubated with varying concentrations of c-erbB-2 (0 to 100 nM) at 4° C. for 1 h. The amount of free sFv was then determined by transferring 100 μl of each mixture into the wells of the previously prepared ELISA plate and incubating for 1 h at 4° C. Binding of sFv was detected as under ELISA screening and the IC50 calculated as described (Friguet et al. (1985), supra)
(§3) These clones were purified by IMAC after subcloning into PUC119SFI/NotmycHis, and the affinity determined by Scatchard analysis.
On the technique in general: ELISA stands for enzyme-linked immunosorbent assay.

Experiment [11] addresses T2, c-erbB-2 expressed on cells (SK-OV-3, …). Nature of the experiment: Scatchard after radioiodination, SK-OV cells. As for the experimental part:
as §1, §3

B1: C6L1 sFv (scFv)
scFv: QVQLLQSGAELKKPGESLKISCKGSGYSFTSYWIAWVRQMPGKGLEYMGLIYPGDSDTKYSPSFQGQVTISVDKSVSTAYLQWSSLKPSDSAVYFCARHDVGYCSSSNCAKWPEYFQHWGQGTLVTVSSGGGGSGGGGSGGGGSQSVLTQPPSVSGAPGQWVTISCSGSSSNIGNNYVSWYQQLPGTAPKLLIYDNNKRPSGVPDRFSGSQSGTSASLAISGLRSEDEADYYCAAWDDSLSGWVFGGGTKLTVLG
notes: Light chain shuffled: C6.5 VH with new VL; also called C6L1 (light chain shuffle)
On to B1, for which, in [1], the equilibrium dissociation constant (Kd) was 2.5 nM and the “fold higher affinity than parental” value was found to be 6 fold. In experiment [2], this molecule showed a dissociation constant (Kd) of 2.6 nM, a koff of 0.002 s⁻¹ and a kon of 780000 M⁻¹ s⁻¹. The equilibrium dissociation constant (Kd) in [3] came out at 2.6 nM.

B2: C6MH3-D7 (scFv)
scFv: QVQLLQSGAELKKPGESLKISCKGSGYSFTSYWIAWVRQMPGKGLEYMGLIYPGDSDTKYSPSFQGQVTISVDKSVSTAYLQWSSLKPSDSAVYFCARHDVGYCSSSNCAKWPEWQDPWGQGTLVTVSSGGGGSGGGGSGGGGSQSVLTQPPSVSAAPGQKVTISCSGSSSNIGNNYVSWYQQLPGTAPKLLIYGHTNRPAGVPDRFSGSKSGTSASLAISGFRSEDEADYYCASWDYTLSGWVFGGGTKLTVLG
notes: C6ML3-9 sFv, VH CDR3 library D mutant; expression too low for a purified Kd
B2 showed a koff in [4] of 0.00031 s⁻¹.

B3: C6ML3-A2 (scFv)
scFv: QVQLLQSGAELKKPGESLKISCKGSGYSFTSYWIAWVRQMPGKGLEYMGLIYPGDSDTKYSPSFQGQVTISVDKSVSTAYLQWSSLKPSDSAVYFCARHDVGFCSSSNCAKWPEYFQHWGQGTLVTVSSGGGGSGGGGSGGGGSQSVLTQPPSVSAAPGQKVTISCSGSSSNIGNNYVSWYQQLPGTAPKLLIYGHTNRPAGVPDRFSGSKSGTSASLAISGFRSEDEADYYCASWDYTLSGWVFGGGTKLTVLG
notes: C6ML3-9 sFv, VH CDR3 library A clone; unpurified in the koff screen; also called mutant sFv with the conservative replacement of Y99F
On to B3, for which, in experiment [5], the “fold lower apparent koff than wt” value was 2.5 fold.

B4: 741F8 sFv (scFv, V domains shown)
VH: EIQLVQSGPELKKPGETVKISCKASGYTFTNYGMNWVKQAPGKGLKWMGWINTNTGEPTYAEEFKGRFAFSLETSASTAYLQINNLKNEDTATYFCGRQFITYGGFANWGQGTLVTVSA
VL: DIVMTQSPKFMSTSVGDRVSISCKASQDVSTAVAWYQQKPGQSPKLLIYWTSTRHTGVPDRFTGSGSGTDYTLTISSVQAEDLALHYCQQHYRVPYTFGGGTKLEIK
For the molecule B4, the dissociation constant Kd in experiment [6] is 26 nM; in experiment [7] it was 54 nM; in experiment [8] it was 54 nM; in experiment [9], 26 nM. The koff in [6] and in [9] was 0.0064 s⁻¹ throughout. Also, the kon in experiment [6] and in experiment [9] was 240000 M⁻¹ s⁻¹ throughout.

B5: C6VLE (scFv)
scFv: QVQLLQSGAELKKPGESLKISCKGSGYSFTSYWIAWVRQMPGKGLEYMGLIYPGDSDTKYSPSFQGQVTISVDKSVSTAYLQWSSLKPSDSAVYFCARHDVGYCSSSNCAKWPEYFQHWGQGTLVTVSSGGGGSGGGGSGGGGSQSVLTQPPSVSAAAGQKVTISCSGSSSSIGRNYVSWNQQLPGTAPKLLIWRNNQRPSGVPDRFSGSKSGTSASLAISGVRSEDEADYYCASWDNSLSGWVFGGGTKLTVLG
modifications: Radioiodinated for the Scatchard assay; the label is not carried in the letters.
notes: Light chain shuffled; mixture of monomer and dimer by gel filtration
In experiment [10], B5 registered an IC50 of 2.8 nM. Moreover, in [11], the affinity, expressed as Kd, was 71 nM.

B6: C6VLF (scFv)
scFv: QVQLLQSGAELKKPGESLKISCKGSGYSFTSYWIAWVRQMPGKGLEYMGLIYPGDSDTKYSPSFQGQVTISVDKSVSTAYLQWSSLKPSDSAVYFCARHDVGYCSSSNCAKWPEYFQHWGQGTLVTVSSGGGGSGGGGSGGGGSQSVLTQPPSMSAAPGQKVTISCSGSSSNIGNNYVSWYQQFPGTAPKLLIHDNNKRPSGIPDRISGSKSGTSASLAISGLQSDDEADYYCAAWDDSLNGWVFGGGTKLTVLG
modifications: Radioiodinated for the Scatchard assay; the label is not carried in the letters.
notes: as for B5
In experiment [10], B6 displayed a half-maximal inhibitory concentration (IC50) of 7.5 nM. Further, in experiment [11], the Kd stood at 79 nM.
